{
  "source": "paper PMC5787919",
  "about": "“A feedback regulatory model for RifQ-mediated repression of rifamycin export in Amycolatopsis mediterranei” (Microbial Cell Factories, 2018)",
  "proteins": {"B1": {"name": "RifQ, TetR-family transcriptional regulator of Amycolatopsis mediterranei S699 (natural protein, UniProt O52558 1-242, looked up)", "chain": "MGKRASQPRESVWLSPRPARKHRAGESELDREKIVATAVRVLDAEGDAKFSMRLLAEELNVTPMSVYWYVANKDDLLELALDAVAGEIELPSLDDGNDWREDLRALARAWRRTMVAHPWAIRCYGEYLNIGPSSLRFTECAQAVMACSPLPLKDRSAALNVVFQYVYGFTATESRWLEHLAETGRTAEEFAAEVTGSMAAMSSTLEQGGLLERDGDQSMEQLRDRDFDRGLNWLFTGMVAGG", "notes": "RifQ, TetR-family regulator encoded in the rifamycin biosynthetic (rif) cluster of Amycolatopsis mediterranei S699; Cloning between NdeI and XhoI of pET22b would usually give a C-terminal His6 tag (surmised); also called His-tagged RifQ; recombinant RifQ; source: E. coli BL21(DE3), pET22b-RifQ, purified (Ni-NTA gravity column)"}},
  "target": "the molecule itself",
  "experiment": "SEC; gel filtration on Superdex 75, calibrated with the Low Molecular Weight kit (aprotinin 6.5 KD, ribonuclease A 14 KD, ovalbumin 44 KD; Blue Dextran 2000 for the void); molecular weight calculated from the retention time",
  "data": [
    {"protein": "B1", "values": [
      {"measurement": "stoichiometry N", "result": 2}
    ]}
  ]
}
